From PMC5009728 (Nucleic Acids Research, 2016)

What was measured:
[1] = molecular target: 6×His-thioredoxin-fused ZAD domain of Zw5 (aa 1–103) (Drosophila melanogaster); test: cross-linking
[2] = molecular target: the molecule itself; test: cross-linking

| stoichiometry N [1] | Molecule | stoichiometry N [2] |
| --- | --- | --- |
| 2 | 6×His-thioredoxin-fused ZAD domain of Zw5 (aa 1–103) (domain or fragment) | – |
| – | 6×His-thioredoxin-fused ZAD domain of ZIPIC (aa 3–81) (domain or fragment, Drosophila, UniProt Q9VAB8 3-81, looked up) CCICQFSVRVPKDIHTDTVGHPPVLISELVLQCTRGTNYVLTEESSTICKKCCEKLARYHKSIQIARKLRGEILELIHS | 2 |
| – | 6×His-thioredoxin-fused ZAD domain of Grauzone (aa 1–84) (domain or fragment, Drosophila melanogaster, UniProt Q9U405 1-84, looked up) MDICRLCLRGVSGAQMCLQIFDVDSGESKVAEVLRQHFWFEVLPNDEISKVICNVCWTQVSEFHQFYVSIQEAQVIYATTSKFK | 2 |
| – | 6×His-thioredoxin-fused ZAD domain of Pita (aa 1–109) (domain or fragment, Drosophila melanogaster, UniProt Q95RQ8 1-109, looked up) MAAKLEVREAMLTEKRVCRFCLTEQKLASIFEENPRVKTTANLPLQIMAITAIEVYAGDGMPGHICLECRLLFEHCYRFKQMCKRAETLLRQYPLTGNWPSPLEKPRAP | 2 |
